According to US9073976B2, “ND2 peptides and methods of treating neurological disease” (NoNO Inc., priority 2010, dated 2015):

Tests used:
NMDA currents = conditions: Liu et al. 2008; cited from earlier work
ND2 310-321 = target: T1, ND2 310-321 (Homo sapiens, UniProt P03891); test: Dot blot of Src fragments probed with biotinylated ND2 310-321; format: binding; conditions: FIG. 5A
T1 construct: 7; NVKMKWQFEHTK
Experimental: Src40-49-Tat indicate a fusion peptide in which the human HIV-1 tat protein transduction domain [[…]] […] (SEQ ID NO:10). […] The peptides were plated at a concentration of ˜5 uM.

rats subjected to 3PVO = test: Three pial vessel occlusion (3PVO) model of stroke, infarct volume; format: in vivo, rat; conditions: 3 nmol/g intravenous one hour post-surgery; 24 hours after surgery; n=10
Experimental: The efficacy of ND2 inhibitors in the treatment of stroke was examined using the three pial vessel occlusion (3PVO) model of stroke. This is a permanent model of stroke that creates small but consistent infarcts at 24 hours.
Male Sprague Dawley rats (n=10 in each group) were surgically subjected to permanent occlusion of the pial vessels. One hour post-surgery, animals were given an intravenous injection of Saline, Tat-NR2B9c (Aarts et al, Science, 2002), Src 40-49-Tat or Tat-ND2 310-321 and allowed to further recover in their cages. 24 hours after surgery, brains were harvested, sliced and incubated with TTC to visualize the areas of infarction. The infarct volume of each animal was determined, as well as the average volumes for each group of ten.
Both peptides were myristoylated via an amide bond to the alpha-amino group of the N-terminal amino acid of the peptide.
Male Sprague Dawley rats (n=10 in each group) weighing between 230 and 290 g were used for this study. Experiments were performed on fasted rats (Free overnight access to water but not food). For permanent three pial vessel occlusion (3PVO) was performed as described previously (Forder J et al., 2005, supra). In brief, rats were anesthetized with a 0.5 ml/kg intramuscular injection of ketamine (100 mg/kg), acepromazine (2 mg/kg), and xylazine (5 mg/kg), supplemented with one-third of the initial dose as required. An anal temperature probe was inserted, and the animal was placed on a heating pad maintained at 37° C. The skull was exposed via a midline incision and scraped free of tissue. Using a dissecting microscope and a pneumatic dental drill, a 6- to 8-mm cranial window was made over the right somatosensory cortex (2 mm caudal and 5 mm lateral to bregma) by drilling a rectangle through the skull and lifting off the piece of skull while keeping the dura intact. The 3 pial arteriolar middle cerebral artery branches around the barrel cortex were selected and electrically cauterized through the dura. After the cauterizations, the scalp was sutured. […]

[1] = system: Formalin, CFA and peripheral nerve constriction pain models; conditions: Liu et al. 2008; cited from earlier work
[2] = target: T2, NMDAR signaling complex in cultured hippocampal neurons (Rattus norvegicus, UniProt P11662+Q9WUD9); test: Co-immunoprecipitation from cultured hippocampal neurons; format: cell-based; conditions: IP anti-NR2B; 1 uM for 1 hour or 3 uM for 2 hours
T2 construct: endogenous in cells; host or cells: primary hippocampal neurons from E17/E18 Wistar rats, 14 DIV
Experimental: We next examined the effect of Tat-ND2 310-321 and Src40-49-Tat on the association of proteins in the NMDAR signaling complex in cultured hippocampal neurons at 14DIV. Neurons were treated with Tat-ND2 310-321 or Src40-49 at 1 uM for 1 hour (FIG. 13A) or at 3 uM for 2 hours (FIG. 13B). Cell lysates were purified and immunoprecipitated with anti-NR2B (left) and then stained with anti NR2B, anti-PSD95, anti-Src and anti-ND2 antibodies.
NMDAR and its associated proteins were prepared from cultured hippocampal (HP) neurons or rat brains. For in vitro competition experiments, two week HP neurons were collected after treatment with Src 40-49-Tat, Tat-ND2 310-321 or Tat peptides for 1 h at luM concentration or for 2 hours at 3 uM concentration then cells were quickly harvested and homogenized.
Lysates were incubated with Dynabeads protein G (Invitrogen) and selected antibodies for 30 minutes at room temperature. Isolated immunoprecipitates were resolved using SDS-PAGE and transferred to nitrocellulose membranes. The membranes were probed with selected detection antibodies, then stripped and reprobed with other detection antibodies.

[3] = target: T3, NMDA Receptor complex in rat brains subjected to 3PVO (Rattus norvegicus, UniProt P11662+Q9WUD9); test: Co-immunoprecipitation from rat brains subjected to 3PVO stroke; format: in vivo; conditions: injection 1 hour post-surgery, harvest 2 hours post-surgery; compared with Tat-ND2 310-321
T3 construct: from tissue; host or cells: rat brain cortex (ipsilateral and contralateral hemispheres) after 3PVO ischemia
Experimental: The status of these proteins was next examined in rat brains that had been subjected to a 3PVO stroke. After 3PVO ischemia, rodents were given either Tat-ND2 310-321 or saline via tail vein injection. At one hour post-surgery, the brains were quickly harvested and lysed. Following IP with anti NR2B antibodies, the membranes were incubated with anti phosphotyrosine antibodies, developed, and subsequently probed with anti Src, phosphorylated Src (pTys) and anti PSD95 antibodies. As an internal control, both the ipsilateral and contralateral hemispheres (I and C, respectively) were prepared.
A second set of experiments was performed on animals subjected to 3PVO, modified such that the saline, Src 40-49-Tat or Tat-ND2 310-321 was administered by tail vein injection 1 hour post-surgery and the brains were harvested and lysed 2 hours post-surgery.
For in vivo experiments, one hour after 3PVO ischemia, rats were injected with indicated peptides or saline by intravenous tail vein. Two hours after surgery (one hour after administration of compounds), the selected cortex of the brain was quickly harvested and homogenized.
Lysates were incubated with Dynabeads protein G (Invitrogen) and selected antibodies for 30 minutes at room temperature. Isolated immunoprecipitates were resolved using SDS-PAGE and transferred to nitrocellulose membranes. […]

[4] = target: T4, binding of biotinylated Src40-49 to Tat-ND2 310-321 (Homo sapiens, UniProt P03891); test: Competition ELISA, binding of biotinylated Src40-49 to pre-coated Tat-ND2 310-321; conditions: FIG. 5E
T4 construct: 10; Tat-ND2 310-321; […]
Experimental: Competition ELISAs were also performed. […] In a similar manner, ND2 constructs bearing amino acid sequences from the 300-321 region are able to act as inhibitors of the interaction between ND2 and Src.

[5] = target: T5, ND2, Src, NMDAR subunits, and PSD95 in hippocampal neurons (Rattus norvegicus, UniProt P11662+Q9WUD9); test: Immunocytochemistry colocalization in 14DIV hippocampal neurons; format: cell-based; conditions: 1 uM peptide for 1 h, day 14 neurons
T5 construct: endogenous in cells; host or cells: primary hippocampal neurons from E17/E18 Wistar rats, 14 DIV
Experimental: A series of experiments was performed to examine the localization of ND2, Src, NMDAR subunits, and PSD95 in hippocampal neurons by immunocytochemistry in the presence of Tat, Tat-ND2 310-321, or Src 40-49-Tat. Briefly, hippocampal neurons were isolated from embryonic day #17/E18 Wistar rats, and cultured in neurobasal media containing coverslips with B27 and glutamax. Cells were then treated for 1 hr with luM peptide before fixing by standard methods. Proteins were visualized using specific antibodies and secondary antibodies coupled to fluorescent molecules. Colocalization of fluorescence was calculated by merging the images in Photoshop and calculating the % colocalized between pairs as the total colocalized fluorescence clusters divided by the total number of clusters (e.g., % colocalized ND2 with Src=(total colocalized)/(total ND2 clusters); % colocalized Src with ND2=(total colocalized)/(total Src clusters)).
Hippocampal neurons cultured on coverslips were treated with 1 uM of Src 40-49-Tat, Tat-ND2 310-321 or Tat for 1 h at the day 14. Then neurons were incubated in 4% paraformaldehyde and 4% sucrose in phosphate-buffered saline (PBS) for 10 minutes followed by 5 minutes […] at room temperature (RT). Cells were permeabilized with 0.25% Triton X-100 in PBS for 5 minutes and by treatment with 5% donkey serum in PBS for 30 minutes at RT. The cultures were incubated with a mixture of the primary antibodies, raised in various species, in 0.25% Triton X-100 PBS for 2 hours at RT, washed, and incubated for 1 hour at RT with a mixture of species-specific secondary antibodies all raised in donkey and conjugated to either Texas Red, or FITC fluorophores (1:200 dilution in 0.25% Triton X-100 PBS). The coverslips were washed with PBS and mounted using ProLong Gold antifade reagent (Invitrogen). Images were collected using a 60× pan-fluor objective on a Nikon Eclipse TE 200 microscope. The images were analyzed with PhotoShop 7 (Adobe, San Jose, Calif.). Brightness and contrast were adjusted, sharpened using the unsharpen mask tool, and the images were merged for color colocalization.
For quantification of the colocalization, the maximum intensities of the fluorophore channels were normalized and the background fluorescence of each channel seen in the dendrites was subtracted, the color images were merged. Two clusters in two different channels were considered colocalizing when at least 66% of the surface of one clusters in one of the two channels overlapped with a clusters in the other channel. For each combination of antibodies, three independent immunofluorescence experiments were done. Each measurement was taken from a 50-m-long dendritic segment (with an average width of 2 m). Colocalization was expressed as the percent of the total clusters analyzed.

[6] = system: association of Src and ND2; conditions: Liu et al. 2008; cited from earlier work

T4 sequence (P03891 other isoform, or with tags, fused parts or gaps): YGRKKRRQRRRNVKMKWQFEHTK

KPASADGHRGYGRKKRRQRRR [Src 40-49-Tat]
NMDA currents (NMDA currents): reduced NMDA currents
binding of biotinylated ND2 310-321 (dot blot) (ND2 310-321): bound ND2 310-321
reducing infarct volumes (statistical effect) (rats subjected to 3PVO): not statistically effective
effect on inflammatory and neuropathic pain [1]: beneficial effect
association of NR2B with Src [2]: reduces the association of NR2B with Src
uncoupling PSD95 and Src from the NMDA Receptor [3]: not nearly as effective
inhibition of binding of biotinylated Src40-49 to Tat-ND2 310-321 (competition ELISA) [4]: inhibited
association (colocalization) between ND2 and NR2B [5]: do not significantly affect
colocalization between PSD95 and NR2B [5]: similarly disrupted
colocalization of ND2 with PSD95 [5]: reduces the colocalization of ND2 with PSD95
colocalization of Src and ND2 [5]: able to reduce the amount of colocalization of Src and ND2
colocalization between NR2B and Src ([5]; FIG. 10): able to reduce the colocalization
colocalization between PSD95 and Src ([5]; FIG. 11): able to reduce the colocalization
association of Src and ND2 in neuronal lysates [6]: disrupt the association of Src and ND2 in neuronal lysates
